Reference: paper PMC3623634 (Molecular Biology of the Cell, 2013)

T1: GST-Alp7C (C-terminal half of Alp7, TACC domain, residues 219-474) (fission yeast, UniProt Q9URY2 219-474)
T1 sequence (looked up): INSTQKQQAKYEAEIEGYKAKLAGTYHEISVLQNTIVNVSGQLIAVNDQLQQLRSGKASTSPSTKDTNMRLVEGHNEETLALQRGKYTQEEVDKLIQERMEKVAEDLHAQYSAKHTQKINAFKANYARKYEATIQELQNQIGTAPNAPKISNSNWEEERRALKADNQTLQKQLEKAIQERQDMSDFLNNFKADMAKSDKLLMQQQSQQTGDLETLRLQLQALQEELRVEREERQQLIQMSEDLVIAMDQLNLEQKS

T2: GST-Alp7 (full-length Alp7/TACC fused to GST) (fission yeast, UniProt Q9URY2 1-474)
T2 sequence (looked up): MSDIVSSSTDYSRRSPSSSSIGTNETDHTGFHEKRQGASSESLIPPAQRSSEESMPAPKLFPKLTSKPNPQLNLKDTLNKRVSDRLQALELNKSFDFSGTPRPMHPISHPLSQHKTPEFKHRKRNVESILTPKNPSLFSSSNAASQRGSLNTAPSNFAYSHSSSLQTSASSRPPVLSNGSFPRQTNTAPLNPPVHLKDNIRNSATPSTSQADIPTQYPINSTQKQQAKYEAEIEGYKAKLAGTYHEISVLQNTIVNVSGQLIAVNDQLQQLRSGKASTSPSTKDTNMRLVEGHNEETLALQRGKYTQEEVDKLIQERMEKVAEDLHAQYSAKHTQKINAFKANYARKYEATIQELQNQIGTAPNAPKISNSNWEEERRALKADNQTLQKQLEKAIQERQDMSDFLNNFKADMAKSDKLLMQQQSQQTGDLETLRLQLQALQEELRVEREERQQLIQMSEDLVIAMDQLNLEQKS

B1: Ndc80 loop peptide (411-424) with F420 replaced by isoleucine (peptide, UniProt Q10198 411-424, looked up)
peptide: DSLEKKVQKINSLA
B2: Ndc80 loop peptide (411-424) with F420 replaced by leucine (peptide, UniProt Q10198 411-424, looked up)
peptide: DSLEKKVQKLNSLA

Columns and labels:
[1] = target: T1, GST-Alp7C (C-terminal half of Alp7, …); assay: peptide or protein array
[2] = target: T2, GST-Alp7 (full-length Alp7/TACC fused …); assay: peptide or protein array

Row | Binder | binding result [1] | binding result [2]
1 | B1 | binds | binds
2 | B2 | binds | binds
